Here are results for one substance from article PMC3747071.

The test deals with HA-tagged GW182 (Drosophila) (UniProt Q8SY33). The test can be described thus: co-IP; lysate of stable S2 cells expressing HA-GW182 and Myc-HPat, treated with dsRNA against YFP (control), AGO1, NOT1, EDC4 and DCP1, or XRN1; anti-HA antibody (12CA5) cross-linked to protein A sepharose; washes with NET buffer with 300 mM NaCl; quantitative Western blot. (In general: A western blot detects proteins with antibodies after separation by electrophoresis.)
Sequence of UniProt Q8SY33 (Q8SY33 whole entry): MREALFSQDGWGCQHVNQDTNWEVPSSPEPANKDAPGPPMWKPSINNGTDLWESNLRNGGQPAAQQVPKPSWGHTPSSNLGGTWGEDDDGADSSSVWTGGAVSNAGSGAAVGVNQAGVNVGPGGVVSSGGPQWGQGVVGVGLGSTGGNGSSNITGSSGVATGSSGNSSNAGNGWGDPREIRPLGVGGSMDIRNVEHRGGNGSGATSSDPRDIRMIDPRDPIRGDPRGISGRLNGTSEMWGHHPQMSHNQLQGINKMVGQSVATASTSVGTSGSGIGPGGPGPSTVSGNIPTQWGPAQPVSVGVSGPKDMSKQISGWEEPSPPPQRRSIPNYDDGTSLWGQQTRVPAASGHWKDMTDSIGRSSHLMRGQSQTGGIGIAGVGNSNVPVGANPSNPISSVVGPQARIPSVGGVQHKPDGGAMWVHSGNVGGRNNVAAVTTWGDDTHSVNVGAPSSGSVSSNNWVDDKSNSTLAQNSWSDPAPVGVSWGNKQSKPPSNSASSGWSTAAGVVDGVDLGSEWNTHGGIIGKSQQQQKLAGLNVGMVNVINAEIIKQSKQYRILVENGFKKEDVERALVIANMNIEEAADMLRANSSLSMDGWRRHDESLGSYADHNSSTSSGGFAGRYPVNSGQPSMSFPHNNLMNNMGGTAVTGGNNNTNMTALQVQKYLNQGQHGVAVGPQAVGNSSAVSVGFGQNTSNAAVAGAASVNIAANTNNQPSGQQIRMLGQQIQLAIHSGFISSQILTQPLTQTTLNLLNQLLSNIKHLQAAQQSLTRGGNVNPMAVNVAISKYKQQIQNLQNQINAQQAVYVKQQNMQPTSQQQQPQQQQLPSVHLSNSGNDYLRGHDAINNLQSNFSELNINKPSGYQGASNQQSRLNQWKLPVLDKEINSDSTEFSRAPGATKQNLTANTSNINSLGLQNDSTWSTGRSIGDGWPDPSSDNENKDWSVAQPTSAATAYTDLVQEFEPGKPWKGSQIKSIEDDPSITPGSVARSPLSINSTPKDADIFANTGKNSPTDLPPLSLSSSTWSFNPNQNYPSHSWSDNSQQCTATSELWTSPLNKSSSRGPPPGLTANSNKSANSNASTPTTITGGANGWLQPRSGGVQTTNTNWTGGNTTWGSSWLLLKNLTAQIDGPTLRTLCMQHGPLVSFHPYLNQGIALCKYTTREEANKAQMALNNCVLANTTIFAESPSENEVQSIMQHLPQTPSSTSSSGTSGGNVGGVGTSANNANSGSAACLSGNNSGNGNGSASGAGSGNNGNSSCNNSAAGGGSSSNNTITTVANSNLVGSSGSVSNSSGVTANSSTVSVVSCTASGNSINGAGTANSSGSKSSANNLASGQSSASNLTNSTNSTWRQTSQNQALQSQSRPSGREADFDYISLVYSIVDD

As to Myc-tagged HPat (natural protein), the decrease of the Myc-HPat/HA-GW182 ratio in the immunoprecipitate, AGO1 knockdown cells against dsYFP control cells came to 84.6% and the decrease of the Myc-HPat/HA-GW182 ratio in the immunoprecipitate, NOT1 knockdown cells against dsYFP control cells was found to be 69.7%.
